Starred links: 1 amine or outer side, 2 acyl side, 3 side chain; linkers in the order of their positions; H or OH if unused. Positions of bridges follow the written chain, without caps; N, C: chain ends. Non-standard residues stand in square brackets, D forms with d. No end group written: not given here. 1Nal = N[C@@H](Cc1cccc2ccccc12)C(=O)O; TBMB = c1c(C[*:1])cc(C[*:3])cc1C[*:2]; Gly(cPent) = N[C@H](C(=O)O)C1CCCC1; hArg = N=C(N)NCCCC[C@H](N)C(=O)O; Tle = CC(C)(C)[C@H](N)C(=O)O; Aib = CC(C)(N)C(=O)O; βAla = NCCC(=O)O; Sar = CNCC(=O)O
What was measured:
[1] = molecular target: Human EphA2 (Ecto) (Human) (UniProt P29317); assay: FP competition, tracer Compound 18
Sequence of Human EphA2 (Ecto) (Human) (P29317 24-537): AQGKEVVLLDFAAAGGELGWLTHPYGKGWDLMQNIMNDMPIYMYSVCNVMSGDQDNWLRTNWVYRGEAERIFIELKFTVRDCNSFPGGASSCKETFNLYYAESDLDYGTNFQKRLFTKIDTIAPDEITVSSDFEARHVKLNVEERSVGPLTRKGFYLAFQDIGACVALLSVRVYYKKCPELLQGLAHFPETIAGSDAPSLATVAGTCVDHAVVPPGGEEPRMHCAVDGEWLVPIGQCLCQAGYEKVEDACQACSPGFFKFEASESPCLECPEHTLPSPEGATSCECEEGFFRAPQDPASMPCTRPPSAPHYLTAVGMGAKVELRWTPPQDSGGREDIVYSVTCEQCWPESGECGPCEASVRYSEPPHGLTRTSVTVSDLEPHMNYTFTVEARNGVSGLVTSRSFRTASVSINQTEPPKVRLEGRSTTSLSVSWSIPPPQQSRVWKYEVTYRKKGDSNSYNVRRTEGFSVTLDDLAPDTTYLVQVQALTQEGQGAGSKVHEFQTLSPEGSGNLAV

Human EphA2 (Ecto) [2] = molecular target: T1, Human EphA2 (Ecto) (Human, UniProt P29317 24-537); assay: FP competition, tracer Compound 66
T1 construct: extracellular domain
T1 sequence (P29317 24-537): as above

Human EphA2 (Ecto) [3] = molecular target: T1, Human EphA2 (Ecto); assay: FP competition, tracer Compound 18
Method: Peptides without a fluorescent tag were tested in competition with a peptide with a fluorescent tag and a known Kd (Table 2). Peptides were diluted to an appropriate concentration in assay buffer as described in the direct binding assay with a maximum of 5% DMSO, then serially diluted 1 in 2. […] Measurements were conducted as for the direct binding assay, however the gain was determined prior to the first measurement. Data analysis was in Systat Sigmaplot version 12.0 where the mP values were fit to a user defined cubic equation to generate a Ki value: […]

Row | Binder | Ki [1] [nM] | also measured
1 | [βAla][Sar][Sar][Sar][Sar][Sar][Sar][Sar][Sar][Sar][Sar]H[dD]VPC[Aib][1Nal]G[Aib]F[1Nal]CP[Tle]N[hArg]PGC (linker 16-23-30 via TBMB) [Bicycle Compound 235] | 2.58 | 
2 | [βAla][Sar][Sar][Sar][Sar][Sar][Sar][Sar][Sar][Sar][Sar]H[dD]VPC[Aib][1Nal]G[Aib]FWCP[Tle]N[hArg]P[dD]C (linker 16-23-30 via TBMB) [Bicycle Compound 242] | 7.77 | 
3 | [βAla][Sar][Sar][Sar][Sar][Sar][Sar][Sar][Sar][Sar][Sar]H[dD]VPC[Aib]WGP[hArg]WCP[Tle]N[hArg]P[dD]C (linker 16-23-30 via TBMB) [Bicycle Compound 247] | 29.7 | 
4 | [βAla][Sar][Sar][Sar][Sar][Sar][Sar][Sar][Sar][Sar][Sar]H[dD]VPCP[1Nal]G[Aib][hArg][1Nal]CP[Tle]NR[Aib]GC (linker 16-23-30 via TBMB) [Bicycle Compound 249] | 1.38 | 
5 | [Sar][Sar]ACPWGPFWCPVARPGC (linker 4-11-18 via TBMB) [Bicycle Compound 101] |  | Ki (Human EphA2 (Ecto) [2]): 265 nM
6 | [βAla][Sar][Sar][Sar][Sar][Sar][Sar][Sar][Sar][Sar][Sar]H[dD][Gly(cPent)]TCP[1Nal]G[Aib]F[1Nal]CP[Tle]NR[Aib]GC (linker 16-23-30 via TBMB) [Bicycle Compound 279] | 0.59 | 
7 | [βAla][Sar][Sar][Sar][Sar][Sar][Sar][Sar][Sar][Sar][Sar]H[dD]VPCPWGP[hArg]WCP[Tle]N[hArg]P[dD]C (linker 16-23-30 via TBMB) [Bicycle Compound 272] | 3.99 | 
8 | [βAla][Sar][Sar][Sar][Sar][Sar][Sar][Sar][Sar][Sar][Sar]H[dD][Gly(cPent)]PC[Aib]WG[Aib]FWCP[Tle]NR[Aib][dD]C (linker 16-23-30 via TBMB) [Bicycle Compound 275] | 15.9 | 
9 | [βAla][Sar][Sar][Sar][Sar][Sar][Sar][Sar][Sar][Sar][Sar]H[dD]VPCP[1Nal]G[Aib]F[1Nal]CP[Tle]NRPGC (linker 16-23-30 via TBMB) [Bicycle Compound 252] | 0.37 | 
10 | [βAla][Sar][Sar][Sar][Sar][Sar][Sar][Sar][Sar][Sar][Sar]H[dD][Gly(cPent)]PCP[1Nal]G[Aib]F[1Nal]CP[Tle]NR[Aib]GC (linker 16-23-30 via TBMB) [Bicycle Compound 278] | 0.46 | 
11 | Ac-[Sar][Sar]A[dH]DVPCP[1Nal]G[Aib]F[1Nal]CP[Tle]NR[Aib]GC (linker 8-15-22 via TBMB) [Bicycle Compound 232] | 0.9 | 
12 | [Sar][Sar]ACPWGPFWCPVNAPGC (linker 4-11-18 via TBMB) [Bicycle Compound 293] |  | Ki (Human EphA2 (Ecto) [2]): 711 nM
13 | Ac-[Sar][Sar]H[dD]VPCP[1Nal]G[Aib]F[1Nal]CP[Tle]N[hArg]PGC (linker 7-14-21 via TBMB) [Bicycle Compound 253] | 0.85 | 
14 | [βAla][Sar][Sar][Sar][Sar][Sar][Sar][Sar][Sar][Sar][Sar]H[dD]VPC[Aib][1Nal]G[Aib]F[1Nal]CP[Tle]N[hArg][Aib][dD]C (linker 16-23-30 via TBMB) [Bicycle Compound 238] | 2.83 | 
15 | [βAla][Sar][Sar][Sar][Sar][Sar][Sar][Sar][Sar][Sar][Sar]H[dD]VPCP[1Nal]G[Aib]F[1Nal]CP[Tle]N[hArg][Aib][dD]C (linker 16-23-30 via TBMB) [Bicycle Compound 259] | 0.91 | 
16 | [βAla][Sar][Sar][Sar][Sar][Sar][Sar][Sar][Sar][Sar][Sar]H[dD]VPCP[1Nal]G[Aib]FWCP[Tle]N[hArg]P[dD]C (linker 16-23-30 via TBMB) [Bicycle Compound 265] | 1.55 | 
17 | [βAla][Sar][Sar][Sar][Sar][Sar][Sar][Sar][Sar][Sar][Sar]H[dD]VPC[Aib][1Nal]GP[hArg][1Nal]CP[Tle]NR[Aib]GC (linker 16-23-30 via TBMB) [Bicycle Compound 243] | 2.83 | 
18 | [βAla][Sar][Sar][Sar][Sar][Sar][Sar][Sar][Sar][Sar][Sar]H[dD]VPC[Aib][1Nal]G[Aib]F[1Nal]CP[Tle]NRPGC (linker 16-23-30 via TBMB) [Bicycle Compound 234] | 3.94 | 

Row | Binder | Ki [1] [nM] | also measured
19 | [βAla][Sar][Sar][Sar][Sar][Sar][Sar][Sar][Sar][Sar][Sar]H[dD]VPCP[1Nal]G[Aib][hArg][1Nal]CP[Tle]N[hArg]P[dD]C (linker 16-23-30 via TBMB) [Bicycle Compound 251] | 1.93 | 
20 | Ac-[Sar][Sar]A[dH]DVPCP[1Nal]G[Aib]F[1Nal]CP[Tle]N[hArg]PGC (linker 8-15-22 via TBMB) [Bicycle Compound 231] | 1.93 | 
21 | [βAla][Sar][Sar][Sar][Sar][Sar][Sar][Sar][Sar][Sar][Sar]H[dD]VPC[Aib][1Nal]G[Aib]F[1Nal]CP[Tle]NR[Aib]GC (linker 16-23-30 via TBMB) [Bicycle Compound 239] | 4.91 | 
22 | [βAla][Sar][Sar][Sar][Sar][Sar][Sar][Sar][Sar][Sar][Sar]H[dD]VPCPWG[Aib]FWCP[Tle]N[hArg]P[dD]C (linker 16-23-30 via TBMB) [Bicycle Compound 271] | 3.66 | 
23 | Ac-[Sar][Sar]H[dD]VTCP[1Nal]G[Aib]F[1Nal]CP[Tle]NR[Aib]GC (linker 7-14-21 via TBMB) [Bicycle Compound 285] | 1.21 | 
24 | [Sar][Sar]ACPWGPFWCPANRPGC (linker 4-11-18 via TBMB) [Bicycle Compound 292] |  | Ki (Human EphA2 (Ecto) [2]): 954 nM
25 | [βAla][Sar][Sar][Sar][Sar][Sar][Sar][Sar][Sar][Sar][Sar]H[dD][Gly(cPent)]TCP[1Nal]G[Aib]F[1Nal]CP[Tle]N[hArg]P[dD]C (linker 16-23-30 via TBMB) [Bicycle Compound 280] | 0.64 | 
26 | [Sar][Sar]ACAWGPFWCPVNRPGC (linker 4-11-18 via TBMB) [Bicycle Compound 286] |  | Ki (Human EphA2 (Ecto) [2]): 886 nM
27 | [Sar][Sar]ACPW[dA]PFWCPVNRPGC (linker 4-11-18 via TBMB) [Bicycle Compound 296] |  | Ki (Human EphA2 (Ecto) [2]): 1000 nM
28 | [βAla][Sar][Sar][Sar][Sar][Sar][Sar][Sar][Sar][Sar][Sar]H[dD]VPC[Aib][1Nal]GP[hArg][1Nal]CP[Tle]N[hArg]P[dD]C (linker 16-23-30 via TBMB) [Bicycle Compound 244] | 2.8 | 
29 | [βAla][Sar][Sar][Sar][Sar][Sar][Sar][Sar][Sar][Sar][Sar]H[dD]VPC[Aib]WGP[hArg]WCP[Tle]N[hArg]P[dD]C (linker 16-23-30 via TBMB) [Bicycle Compound 246] | 31.4 | 
30 | [βAla][Sar][Sar][Sar][Sar][Sar][Sar][Sar][Sar][Sar][Sar]H[dD]VPCPWG[Aib]F[1Nal]CP[Tle]N[hArg]P[dD]C (linker 16-23-30 via TBMB) [Bicycle Compound 269] | 1.11 | 
31 | [βAla][Sar][Sar][Sar][Sar][Sar][Sar][Sar][Sar][Sar][Sar]H[dD]VPC[dA][1Nal]G[Aib]F[1Nal]CP[Tle]N[hArg]P[dD]C (linker 16-23-30 via TBMB) [Bicycle Compound 248] | 28.4 | 
32 | [βAla][Sar][Sar][Sar][Sar][Sar][Sar][Sar][Sar][Sar][Sar]H[dD]VPCP[1Nal]G[Aib]F[1Nal]CP[Tle]N[hArg]PGC (linker 16-23-30 via TBMB) [Bicycle Compound 257] | 1.07 | 
33 | [Sar][Sar]ACPWG[dA]FWCPVNRPGC (linker 4-11-18 via TBMB) [Bicycle Compound 297] |  | Ki (Human EphA2 (Ecto) [2]): 1500 nM
34 | [βAla][Sar][Sar][Sar][Sar][Sar][Sar][Sar][Sar][Sar][Sar]H[dD]VPCP[1Nal]G[Aib][hArg][1Nal]CP[Tle]NR[Aib][dD]C (linker 16-23-30 via TBMB) [Bicycle Compound 250] | 1.48 | 
35 | [Sar][Sar]ACPWGPFWCAVNRPGC (linker 4-11-18 via TBMB) [Bicycle Compound 291] |  | Ki (Human EphA2 (Ecto) [3]): > 1000 nM

— US11814447B2, “Peptide ligands for binding to EphA2” (BICYCLERD LIMITED, priority 2018, dated 2023)
